Results: the nanobody polyreactivity screen of Harvey et al. (2022)

Assay: yeast display, Sf9 membrane polyspecificity reagent, FACS + sequencing; frameworks hold sequencing errors
In short: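 Synthetic nanobody libraries on Saccharomyces cerevisiae BJ5465 were galactose-induced for 36–48 hours, stained 1 hour at 4 °C with 10% biotinylated, detergent-solubilized Sf9 membrane reagent and enriched on streptavidin microbeads. FACS then separated cells into low and high (top ~1%) gates by anti-HA (expression) and streptavidin (reagent binding) fluorescence. Genes were colony-PCR amplified, MiSeq 2 × 250 sequenced and CDR-length filtered. A clone's polyreactivity label is that of its gate of origin.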

Sequence	polyreactivity (PSR sort gate)
QVQLVESGGGLVQAGGSLRLSCAASGLTFQHYAMGWYRQAPGKERELVASISYSGGGTYADSVKGRFTISRDNAKNTVYLQMNSQKPEDTAVYYCATSLQRQFDYWGQGTQVTVSS	low polyreactivity
QVQLVESGGGLVQAGGSLRLSSSASGSIFDGYAMGWYRQAPGKEREFVAAIRWGDGIKYYADSVKGRFTISRDNAKNTVYLQMNSLTPEDTAVYYCAAVQHGHEPRVQDSYDYWGQGTQVTVSS	low polyreactivity
QVQLVESGGGLVQAGGSLRLSCAASGSTFDIYPMGWYRQAPGKERELVAAISWSGGRTYYADSVKGRFTISRDNAKNTVYLQMNSLKPEDTAVYYCAAVNKSGTYVEYDYWGQGTQVTVSS	low polyreactivity
QVQLVESGGGLVQAGGSLRLSCAASGSIFYVNTMVWYRQAPGKERELVAGITSRGGSTYYADSVKGRFTISRDNAKNSVYLQMNSLKPEDTAVYYCAKRAYGTALYRGYGYWGQGTQVTVSS	low polyreactivity
QVQLVESGGGLVQAGGSLRLSCAASGSIFYNAMGWYRQAPGKERELVAAITSGGRTYYADSVKGRFTISRDNAKNTVYLQMNSLKPEDTAVDYCAADVRRVRVGKYDYWGQGTQVTVSS	high polyreactivity
QVQLVESGGGLVQAGGSLRLSCAASGITFSLYAMGWYRQAPGKERELVAAITRSGGSTYYADSVKGRFTISRDNAKNTVYLQMNSLKPEDTAVYYCAAQRPGVRRYYYWGQGTQVTVSS	high polyreactivity
QVQLVESGGGLVQAGGSLRLSCAASGSTFTYYAMGWYRQAPGTERELVAAITGSDGRTYYADSVKGRFTISRDNAKNTVYLQMNSLKPEDTAVYYCATDVPIREIDEFGYWGQGTQVTVSS	low polyreactivity
QVQLVESGGGVVQAGGSLRLSCAASGRIFSSYAMGWYRQAPGKERELVAAITSGGSTDYADSVKGRFSISRDNAKNTVYLQMNSLKPEDTAVYYCAKAFLAPWTYSPYYMFYYWGQGTQVTVSS	low polyreactivity
QVQLVESGGGLVQAGGSLRLSCAASGYTFRYYAMGWYRQAPGKERELVARITGRAGSTYYADSVKGRFTISRDNAKNTVYLQMNSLKPEDTAVYYCAAQPAHPRRYDYWGQGTQVTVSS	high polyreactivity
QVQLVESGGGLVQAGGSLRLSCAASGITFTVYAMGWYRQAPGKERELVAAISQSGGSTYYADSVKGRFTISRDNAKNTVYLQMNSLNPEYTAVYDCNSDTVWGPYRSYIPFDYWGQGTQVNVSS	low polyreactivity
QVQLVESGGGLVQAGGSLRLSCASSGITFTFYVMGWYRQAPGKERELVAAISSGGGRTYYADSVKGRFTISRDNAKNTVYLQMNSLKPEDTAVYYCNAALYHDSEYNYWGQGTQVSVSS	high polyreactivity
QVQLVESGGGLVQAGGSLRLSCAASGSIFNRYTMGWYRQAPGKETELVAAISRGDTTYYADSVKGRFTISRDNAKNTVYLEMNSLKPEDTAVYYWAKAYDTTLTYNYWGQVTQVTVSS	low polyreactivity
QVQLVESGGGLVQAGGSLRLSCAASGYTLNIYGMGWYRQATGKERELVAAISRGGSTNYADSVKGRFTISRDNAKNTVYLQMNSLKPEDTAVYYCAKVYNYRSVRYYYWGQGTQVTVSS	high polyreactivity
QVQLVESGGGLVQAGGSLRLSCAASGSTFGINAMGWSRQAPGKERELVAAINSGTRTYYADSVKGRFTISRDNAKNNVYLQMNSLKPEDTAVYYCAARGVVGASGYYYWGQGTQVTVSS	high polyreactivity
QVQLVESGGGLVQAGGSLRLSCAASGIIFWTYTMGWYRQAPGKERELVAAISSGGSTTYADSVKGRFTISRDNSMNTVFLQMNWLKPEDTAVYYCAKRRQYQRSYNYWGKGTQVTVSS	low polyreactivity
QVQLVESGGGLVQSGGSLRLSCVASGRTFRWYPMGWYRQEPGKERELVATITLNGGSTYYADSVKGRFTISRDNEKNTVYLQMNSLKPEDTAVYYCNRGTNVVRRGVYSFGYDYWGHGTQVTVSS	low polyreactivity

Sequence	polyreactivity (PSR sort gate)
QVQLVESGGGLVQAGGSLRLSCAASGFIFRWYAKGWYRQAPGKERELVATITRSGGSTYYADSVKGRFTSSRDNAKNTVYLQMNSLKPEDTAVYYCNAGYSYKYYYWGQGTQVTVSS	high polyreactivity
QVQLVESGGGLVQAGGSLRLSCAASGRIFNHNTMGWYRQAPGKERELVAAISRSGASTYYADSVKGRFTISRDNAKNTVYLQMNSLKPEDTAVYYCNAATYADGITIYDYWGQGTQVTVSS	low polyreactivity
QVQLVESGGGLVQAGGSLRLSCAASGSIFTNYPMGCYRQAPGKERELVAAISQSGDTTYYADSVKGRFTISRDNAKNTVYLQMNSLKPEDSSVYYCAAQYYRWFYYWGQGTQVTVSS	high polyreactivity
QVQLVESGGRLVQAGGSLRLSCAASGGIFTAYTMGWYRQAPGKESELVAVISSGGGRTYYADSVKGRFTISRDNAKNTVYLQMNSLKPEDTAVYYCNARVYVSANKYDYWGQGTQVTVSS	high polyreactivity
QVQLVESGGGLVQAGGSLRLSCAASGSTFVGKVMGWYRQAPGKERELVAAISRGGSTYYADSVKGRFTISRDNAKNTVYLQMNSLKPEDTAVYYCAADVRPWGNYHAQYDYWGQGTQVTVSS	low polyreactivity
QVQLVESGGGLVQAGGSLRLSCAASGITFWWYAMGWYRQAPGKERELVAAITGGGSTNYADSVKGRFTISRDNAKNTVYLQMNSLKPEDTAVYYCAATGSPARNWDTVTGYYYWGQGTQVTVSS	low polyreactivity
QVQLVESGGGLVQAGVSLRLSCAASGSIFGFNAMGWYRQAPGKEWELVAAINNGGSTNYADSVKGRFTISRDNAKNTVYLQMNSLKPEDTAVYYFAAERWFYRSKFDYWGQGTQVTVSS	high polyreactivity
QVQLVESGGGLVQAGGSLRLSCAASGRIFKYYAMGWYRQAPGKERELVAAITRNGGITYYADSVKGRFTISRDNAKNTVYLQMNSLKPEDTAVYYCAAGQRGRYSISSDEYNYWGQGTQVTVSS	high polyreactivity
QVQLVESGGGLVQAGGSLRLSLLPPDSPSTTMLWDGIDRRLGKKGSWLPVFLPSGGTTYADSVKGRFTISRDNAKNTVYLQMNSLKPEDTAVYYCAASYYRTRWSWMYYWGQGTQVTLSS	low polyreactivity
QVQLVESGGGLVQAGGSLRLSCAASGRTFVSNDMGWYRQAPGKERELVATISSGASTYYADSVKGRFTISRDNAKNTVYLQMNSLKPEDTAVYYCAAEVLVFGGGYDYWGQGTQVTVSS	low polyreactivity
QVQLVESGGGLVQAGGSLRLSCAASGRIFGWYTMGWYRQAPGKERELVAVISSGGSTNYADSVKGRFTISRDNAKNTVYLQMNSLKPEDTAVYYCAAGGQGGDFGDDYWGQGTQVTVSS	high polyreactivity
QVQLVESGGGLVQAGGSLRLSCAASGIIFYDYAMGWYRQAPGKERELVAAISGSGVGTYYADSVKGRFTISRDNAKNTVYLQMNSLKPEDTAVYYCATRYQWGGPYYRYDYWGQGTQVTVSS	high polyreactivity
QVQLVESGGGLVQAGGSLRLSCAASGRIFSYYTMGWYRQAPGKERELVAAISSGGSTNYADSVKGRFTISRDNAKNTVYLQMNSLKPEDTAVYYCAVRSGRRNYDRPAFGYWGQGTQVTVSS	high polyreactivity
QDQLVESGGGLVQAGGSLRLSCAASGFTFTRNAMGWYRQAPGKEREFVAAISVGGGRTYYADSVKGRFTISRDNAKNTVYLQMNSLKPEDTAVYYCNAYQGWRYDYWGPGTQVTVSS	high polyreactivity
QVQLVESGGGLVQAGGSLRLSCAASGSTFGSNAMGWYRQAPGKERELVAAITGGDVSTYYADSVKGRFTISRDNAKNTVYLQMNSLKPEDTAVYYCNAEYARPAMDYWGQGTQVTVSS	low polyreactivity
QVQLVESGGGLVQAGGSLRLSCAASGSTFHYYAMGWYRQAPGKERELVAAISSSGVSTYYADSVKGRFTISRDNAKNTVYLQMNSLKPEDTAVYYCNRASVFHYRWYYYWGQGTQVTVSS	high polyreactivity
